Data taken from article PMC7818446, “Enzymology of the pathway for ATP production by arginine breakdown” (The Febs Journal, 2020).

Experiments:
[1] = biological target: T1, ArcC1 (carbamate kinase, CK) (Lactococcus lactis, UniProt Q9CE16); assay: ATP formation by ATPlite luminescence; type: biochemical; conditions: read-out: % inhibition at 10 mM
T1 construct: expressed in L. lactis NZ9000; dimer (73 kDa)
T1 sequence (Q9CE16 1-314): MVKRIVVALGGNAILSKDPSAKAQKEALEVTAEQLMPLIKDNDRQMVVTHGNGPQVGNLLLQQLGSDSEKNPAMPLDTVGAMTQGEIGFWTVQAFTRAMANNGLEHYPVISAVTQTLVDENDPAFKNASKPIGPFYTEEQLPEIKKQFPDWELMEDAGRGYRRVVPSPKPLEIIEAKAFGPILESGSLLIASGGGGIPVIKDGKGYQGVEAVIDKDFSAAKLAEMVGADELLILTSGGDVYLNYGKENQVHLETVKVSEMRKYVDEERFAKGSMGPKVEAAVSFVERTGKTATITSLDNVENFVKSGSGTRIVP

[2] = biological target: T2, ArcB (ornithine transcarbamoylase, OTC) (Lactococcus lactis, UniProt P0C2U0); assay: citrulline formation, COLDER assay (A540); type: biochemical; conditions: read-out: % inhibition at 10 mM
T2 construct: expressed in L. lactis NZ9000; hexamer (245 kDa)
T2 sequence (P0C2U0 1-354): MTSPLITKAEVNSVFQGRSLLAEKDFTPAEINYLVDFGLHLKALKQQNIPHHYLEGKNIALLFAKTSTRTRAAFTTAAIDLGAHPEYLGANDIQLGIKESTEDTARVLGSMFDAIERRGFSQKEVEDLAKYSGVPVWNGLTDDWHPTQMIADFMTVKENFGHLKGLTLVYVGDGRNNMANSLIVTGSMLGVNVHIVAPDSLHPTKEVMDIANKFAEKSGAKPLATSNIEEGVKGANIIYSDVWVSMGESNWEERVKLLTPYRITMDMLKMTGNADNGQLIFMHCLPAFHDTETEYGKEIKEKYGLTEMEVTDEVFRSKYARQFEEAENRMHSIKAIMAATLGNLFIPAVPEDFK

[3] = biological target: T3, ArcA (arginine deiminase, ADI) (Lactococcus lactis, UniProt P58013); assay: citrulline formation, COLDER assay (A540); Michaelis-Menten with uncompetitive substrate inhibition; type: biochemical; conditions: 3.2 nM ArcA, 50 mM KPi pH 7.0, 30 °C, n = 1
T3 construct: expressed in L. lactis NZ9000; tetramer (194 kDa)
T3 sequence (P58013 1-410): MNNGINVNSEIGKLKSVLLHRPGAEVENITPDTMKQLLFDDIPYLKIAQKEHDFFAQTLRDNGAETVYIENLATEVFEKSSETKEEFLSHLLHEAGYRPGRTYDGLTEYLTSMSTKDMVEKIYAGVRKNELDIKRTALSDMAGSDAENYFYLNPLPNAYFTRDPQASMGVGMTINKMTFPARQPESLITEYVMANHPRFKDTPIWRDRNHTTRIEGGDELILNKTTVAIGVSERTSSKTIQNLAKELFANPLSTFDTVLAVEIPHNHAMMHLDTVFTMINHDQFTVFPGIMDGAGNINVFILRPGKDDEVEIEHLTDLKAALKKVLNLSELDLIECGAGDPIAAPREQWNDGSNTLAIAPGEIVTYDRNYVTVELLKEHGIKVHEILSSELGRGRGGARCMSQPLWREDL

[4] = biological target: T3, ArcA (arginine deiminase, ADI); assay: citrulline formation, COLDER assay (A540); type: biochemical; conditions: read-out: % inhibition at 10 mM
[5] = biological target: T1, ArcC1 (carbamate kinase, CK); assay: ATP formation by ATPlite luminescence; type: biochemical; conditions: 5 mM carbamoyl-Pi, 5 mM Mg-ADP; 50 mM KPi pH 7.0; 30 °C
[6] = biological target: T2, ArcB (ornithine transcarbamoylase, OTC); assay: citrulline formation, COLDER assay (A540); type: biochemical; conditions: citrulline-forming direction; 5 mM carbamoyl-Pi; 50 mM KPi pH 7.0; 30 °C
[7] = substrate: N=C(N)NCCC[C@H](N)C(=O)O; assay: citrulline formation, COLDER assay (A540); type: biochemical, Lactococcus lactis; conditions: 50 mM KPi pH 7.0, 30 °C, 42 nM ArcA, arginine up to 480 µM
[8] = substrate: NC(=O)OP(=O)(O)O; assay: citrulline formation, COLDER assay (A540); type: biochemical, Lactococcus lactis; conditions: citrulline-forming direction, 5 mM ornithine, 50 mM KPi pH 7.0, 30 °C
[9] = substrate: Nc1ncnc2c1ncn2[C@@H]1O[C@H](COP(=O)(O)OP(=O)(O)O)[C@@H](O)[C@H]1O; assay: ATP/ADP ratio by PercevalHR fluorescence, pH-corrected with pyranine; type: biochemical, Lactococcus lactis; conditions: 5 mM carbamoyl-Pi, 50 mM KPi pH 7.0, 30 °C
[10] = substrate: NC(=O)OP(=O)(O)O; assay: as above; type: biochemical, Lactococcus lactis; conditions: 5 mM Mg-ADP, 50 mM KPi pH 7.0, 30 °C
purified protein [11] = substrate: N=C(N)NCCC[C@H](N)C(=O)O; assay: purified protein; type: biochemical, Lactococcus lactis; conditions: external arginine, 10 mM internal ornithine, DOPE:DOPG:DOPC 50:38:12, 50 mM KPi pH 7.0, 30 °C, labelled compound
purified protein [12] = substrate: NC(=O)NCCC[C@H](N)C(=O)O; assay: purified protein; type: biochemical, Lactococcus lactis; conditions: internal citrulline as counter-substrate, 25 µM external arginine, membrane potential −120 mV (valinomycin), pH 7.0, 30 °C
purified protein [13] = substrate: NCCC[C@H](N)C(=O)O; assay: purified protein; conditions: internal ornithine as counter-substrate, 25 µM external arginine, 50 mM KPi pH 7.0, 30 °C

## NC(=O)NCCC[C@H](N)C(=O)O [L-citrulline]
[1]
  inhibition at 10000 µM: 40 to 50%

## N=C(N)NCCC[C@H](N)C(=O)O [L-arginine]
[2]
  inhibition at 10000 µM: 25%
[3]
  K I: 3.2 ± 0.4 mM

## NCCC[C@H](N)C(=O)O [L-ornithine]
[4]
  inhibition at 10000 µM: 30%
[5]
  % inhibition: ornithine was slightly inhibitory
[6]
  Km: 700 ± 200 µM

B1: ArcA (arginine deiminase, ADI) (Lactococcus lactis subsp. lactis Il1403) (protein)
chain: T3 sequence (P58013 1-410)
notes: expressed in L. lactis NZ9000; tetramer (194 kDa)
[7]
  Km: 34.5 ± 6.6 µM
  kcat: 3.3 ± 0.2 s⁻¹

B2: ArcB (ornithine transcarbamoylase, OTC) (Lactococcus lactis subsp. lactis Il1403) (protein)
chain: T2 sequence (P0C2U0 1-354)
notes: expressed in L. lactis NZ9000; hexamer (245 kDa)
[8]
  Km: 2700 ± 400 µM
  kcat: 565 ± 45 s⁻¹

B3: ArcC1 (carbamate kinase, CK) (Lactococcus lactis subsp. lactis Il1403) (protein)
chain: T1 sequence (Q9CE16 1-314)
notes: expressed in L. lactis NZ9000; dimer (73 kDa)
[9]
  Km: 1600 ± 700 µM
  kcat: 190 ± 15 s⁻¹
[10]
  Km: 600 ± 200 µM
  kcat: 200 ± 20 s⁻¹

B4: ArcD2 (arginine/ornithine antiporter, AOA) (Lactococcus lactis subsp. lactis Il1403) (protein)
chain: MENKKTKGISLFALLAIIISGAIGGGVFNLANDLANGSTPGGVMISWLFIGFGIFMLVLSFNRLITIRPKLSGVSDYAREGFGDFIGFLSGWGYWISAWTGTIGFAVLMMTSADYFFPSKFANSNGSLTVLSVIIVSIISWILMFLVDRGVETAALVNAVVMIAKLIPLVVFSITGIILFKADVFTQHFWQTFTSNLAADGSVKSLVWHAMTAGGLLDQIKGSLMVMVWVFVGIEGAAMMGNRAKKKSDTAKATIIGLAVLLVIYVLLSLLPYGYMDQASLANVKAPGLVYILNEMVGGWGGSLMAIGLMISLLGAWLSWTMLPVEATQQLAEKKLLPSWFGKLNKYHAPSNSLLITQLMIQIFIIITYFVANAYNVFIYMATAVIMICYALVGAYLLKIGIKEGSIKNILIGFFTFAFQALALYLSGWQYVWLAMILYTIGFILFIKAKKESRQAISVKEWAGMFIVALLGVLAILVLICGAKSGTALDLRGLLGY
notes: expressed in L. lactis JP9000; reconstituted in proteoliposomes; monomer (53 kDa) in DDM
Purified protein [11]
  Km: 6.0 ± 0.7 µM
  kcat: 0.11 ± 0.005 s⁻¹
Purified protein [12]
  Km: 6000 ± 2100 µM
Purified protein [13]
  Km: 2500 ± 700 µM
  kcat: 0.09 ± 0.009 s⁻¹
